Series [1] addresses DdrB E51A mutant with N-terminal 6His tag (Deinococcus radiodurans) (UniProt Q9RY80). The series is described as follows: AUC; sedimentation velocity, 20°C, 42 krpm, 100 mM KCl, 20 mM Tris pH 8.0, loading concentrations 10 µM to 0.64 mM, absorbance and interference optics, no DNA; pentamer and assemblies of pentamers.
The target in series [2] is DdrB R83A mutant with N-terminal 6His tag (Deinococcus radiodurans) (UniProt Q9RY80). The description is as above.
Series [3] deals with the molecule itself. The series is described as follows: crystal structure; 740 µM DdrBDr with 160 µM 50b poly dT, hanging drop at 20°C; 2.30 Å; pentamer in the asymmetric unit, pentamer-pentamer interface by crystallographic symmetry.
The target in series [4] is T1, DdrB E51A (Deinococcus radiodurans, UniProt Q9RY80 1-144, E51A).
T1 sequence: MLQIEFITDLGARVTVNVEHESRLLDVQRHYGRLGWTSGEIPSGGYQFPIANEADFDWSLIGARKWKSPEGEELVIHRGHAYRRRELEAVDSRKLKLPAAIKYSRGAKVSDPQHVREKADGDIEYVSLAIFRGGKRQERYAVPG
The series is described as follows: EMSA; single pentamer-DNA complex only, no higher-order shifts; 10 uM DNA; FP: 20 mM Tris pH 8.0, 100 mM KCl, 200 nM DNA; EMSA: same plus 15% glycerol, 10 uM DNA; temperature not stated. The settings on record: protein: recombinant; tags: N-terminal 6His; chain copies: 5.

For series [5], the target named is T2, DdrB1-144 (Deinococcus radiodurans, UniProt Q9RY80 1-144).
T2 sequence: T1 sequence with A51E
The series is described as follows: EMSA; pentamer, decamer and penta-decamer complexes; 10 uM DNA; FP: 20 mM Tris pH 8.0, 100 mM KCl, 200 nM DNA; EMSA: same plus 15% glycerol, 10 uM DNA; temperature not stated. The settings on record: protein: recombinant; tags: N-terminal 6His (pET151, not cleaved); chain copies: 5.

The target in another series is T3, DdrB1-144, tag removed (Deinococcus radiodurans, UniProt Q9RY80 1-144).
T3 sequence: T1 sequence with A51E
The series is described as follows: X-ray crystallography 2.30 A; MES pH 5.6, KCl, 10 mM MgCl2, PEG 8000; FP: 20 mM Tris pH 8.0, 100 mM KCl, 200 nM DNA; EMSA: same plus 15% glycerol, 10 uM DNA; temperature not stated. As to conditions: protein: recombinant; tags: 6His removed by TEV; chain copies: 5.

The target in series [6] is T2, DdrB1-144. The series is described as follows: fluorescence anisotropy; per pentamer, A+B=AB model; FP: 20 mM Tris pH 8.0, 100 mM KCl, 200 nM DNA; EMSA: same plus 15% glycerol, 10 uM DNA; temperature not stated. The settings on record: protein: recombinant; tags: N-terminal 6His (pET151, not cleaved); chain copies: 5; label: 5' 6-FAM.
Another series addresses T4, DdrB W66A (Deinococcus radiodurans, UniProt Q9RY80 1-144, W66A).
T4 sequence: T1 sequence with A51E, W66A
Put plainly: fluorescence anisotropy; per pentamer; saturating anisotropy fixed to wild-type value; FP: 20 mM Tris pH 8.0, 100 mM KCl, 200 nM DNA; EMSA: same plus 15% glycerol, 10 uM DNA; temperature not stated. The settings on record: protein: recombinant; tags: N-terminal 6His; chain copies: 5; label: 5' 6-FAM.

Series [7] addresses T1, DdrB E51A. The series is described as follows: fluorescence anisotropy; 3 uM pentamer; full DNA binding activity retained; FP: 20 mM Tris pH 8.0, 100 mM KCl, 200 nM DNA; EMSA: same plus 15% glycerol, 10 uM DNA; temperature not stated. As to conditions: protein: recombinant; tags: N-terminal 6His; chain copies: 5; label: 5' 6-FAM.

Substitutions are numbered along the chain they refer to.

As to “DdrB E51A mutant with N-terminal 6His tag (from UniProt Q9RY80 1-144) (domain or fragment)”, in series [1], the percent of the total signal from the pentamer came out at 88% and the stoichiometry N was 5.

In [2], “DdrB R83A mutant with N-terminal 6His tag (from UniProt Q9RY80 1-144) (domain or fragment)” yielded a percent of the total signal from the pentamer of 92% and a stoichiometry N of 5.

B1: DdrB1-144 from Deinococcus radiodurans, 6His tag removed (protein used in crystallography) (domain or fragment, UniProt Q9RY80 1-144, looked up)
chain: T1 sequence with A51E
notes: DdrB, Deinococcus radiodurans, residues 1-144 (stop codon introduced following residue 144), construct MJ4748 in pET151/D-Topo; Pentamer; Tag cleaved with TEV protease; also called DdrBDr; not shown: His6, N-terminal, cleaved
With B1, the “stoichiometry N” value in series [3] amounted to 5.

On to TTTTTTTTTTTTTTTTTTTTTTTTTTTTTTTTTTTTTTTTTTTTTTTTTT (ssDNA) [50b poly dT], for which the binding result is reported as “binds” with DdrB E51A [4]; “binds” with DdrB1-144 [5]; “binds” with DdrB1-144, tag removed.

With TTTTTTTTTTTTTTTTTTTT (ssDNA) [20b poly dT], the Kd with DdrB1-144 [6] came to 3.6 µM; with DdrB W66A, 51 µM. The binding result with DdrB E51A [7] is listed as “binds”.
